Experimental findings from patent publication US20060188503A1 are described below.

For test [1], the target named is KDR receptor with a gD tag at the N-terminus, on CHO cells (UniProt P35968). Nature of the test: cell-based or functional assay.
The target in test [2] is KDR receptor on human umbilical vein endothelial cells (HUVEC) (human) (UniProt P35968). As to the kind of experiment: cell-based or functional assay.
Chain of KDR receptor on human umbilical vein endothelial cells (HUVEC) (human) (P35968 20-1356): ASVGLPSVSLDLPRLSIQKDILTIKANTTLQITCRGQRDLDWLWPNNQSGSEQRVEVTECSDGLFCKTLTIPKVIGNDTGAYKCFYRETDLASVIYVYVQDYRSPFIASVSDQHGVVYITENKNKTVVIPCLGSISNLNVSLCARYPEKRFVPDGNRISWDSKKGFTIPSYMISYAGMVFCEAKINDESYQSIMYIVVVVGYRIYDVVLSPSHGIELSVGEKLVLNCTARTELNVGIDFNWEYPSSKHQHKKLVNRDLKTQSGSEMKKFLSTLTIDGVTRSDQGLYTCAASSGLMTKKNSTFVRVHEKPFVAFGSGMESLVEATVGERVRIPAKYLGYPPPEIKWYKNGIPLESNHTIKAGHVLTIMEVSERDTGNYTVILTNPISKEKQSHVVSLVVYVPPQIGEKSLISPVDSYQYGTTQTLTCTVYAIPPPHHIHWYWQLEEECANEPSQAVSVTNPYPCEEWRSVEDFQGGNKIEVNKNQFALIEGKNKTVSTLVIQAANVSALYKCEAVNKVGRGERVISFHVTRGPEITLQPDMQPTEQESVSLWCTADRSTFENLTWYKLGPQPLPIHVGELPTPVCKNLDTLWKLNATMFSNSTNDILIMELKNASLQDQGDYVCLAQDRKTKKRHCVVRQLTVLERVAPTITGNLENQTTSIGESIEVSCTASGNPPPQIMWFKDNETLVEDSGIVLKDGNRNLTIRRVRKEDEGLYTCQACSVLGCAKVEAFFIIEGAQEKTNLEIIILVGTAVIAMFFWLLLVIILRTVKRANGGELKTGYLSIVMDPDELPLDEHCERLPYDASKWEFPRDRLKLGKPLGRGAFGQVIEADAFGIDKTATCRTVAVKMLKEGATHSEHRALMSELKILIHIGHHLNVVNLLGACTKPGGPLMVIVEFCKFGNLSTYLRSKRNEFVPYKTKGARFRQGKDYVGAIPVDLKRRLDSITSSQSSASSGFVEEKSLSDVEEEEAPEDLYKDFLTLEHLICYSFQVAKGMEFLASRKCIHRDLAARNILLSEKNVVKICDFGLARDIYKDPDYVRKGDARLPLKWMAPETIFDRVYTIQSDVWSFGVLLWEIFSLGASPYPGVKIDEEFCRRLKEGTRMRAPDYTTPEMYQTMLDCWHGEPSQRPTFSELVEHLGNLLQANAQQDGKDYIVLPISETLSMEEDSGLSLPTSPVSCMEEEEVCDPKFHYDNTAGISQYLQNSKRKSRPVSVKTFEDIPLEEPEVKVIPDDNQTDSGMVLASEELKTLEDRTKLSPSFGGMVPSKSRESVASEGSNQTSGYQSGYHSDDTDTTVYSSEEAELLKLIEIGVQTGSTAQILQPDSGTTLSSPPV

For “Native VEGF (8-109) (from UniProt P15692 214-315) (ligand)”, the Phosphorylation-Inducing Activity (KIRA), concentration at midpoint absorbance in test [1] was 2 nM. In addition, in test [2], the Endothelial Cell Proliferation Activity (HUVEC, 3H-thymidine), concentration is 0.5 nM.
